Reference: PMC6056499, “A systematic dissection of sequence elements determining β-Klotho and FGF interaction and signaling” (Scientific Reports, 2018)

Target: human β-Klotho extracellular domain (aa1–992) fused with a 6 × His tag at the C-terminus (UniProt Q86Z14)
Experiment: solid-phase binding assay
Settings: parent: est. 1.0; read off a plot

human β-Klotho extracellular domain (aa1–992) fused with a 6 × His tag at the C-terminus, sequence (Q86Z14 53-992): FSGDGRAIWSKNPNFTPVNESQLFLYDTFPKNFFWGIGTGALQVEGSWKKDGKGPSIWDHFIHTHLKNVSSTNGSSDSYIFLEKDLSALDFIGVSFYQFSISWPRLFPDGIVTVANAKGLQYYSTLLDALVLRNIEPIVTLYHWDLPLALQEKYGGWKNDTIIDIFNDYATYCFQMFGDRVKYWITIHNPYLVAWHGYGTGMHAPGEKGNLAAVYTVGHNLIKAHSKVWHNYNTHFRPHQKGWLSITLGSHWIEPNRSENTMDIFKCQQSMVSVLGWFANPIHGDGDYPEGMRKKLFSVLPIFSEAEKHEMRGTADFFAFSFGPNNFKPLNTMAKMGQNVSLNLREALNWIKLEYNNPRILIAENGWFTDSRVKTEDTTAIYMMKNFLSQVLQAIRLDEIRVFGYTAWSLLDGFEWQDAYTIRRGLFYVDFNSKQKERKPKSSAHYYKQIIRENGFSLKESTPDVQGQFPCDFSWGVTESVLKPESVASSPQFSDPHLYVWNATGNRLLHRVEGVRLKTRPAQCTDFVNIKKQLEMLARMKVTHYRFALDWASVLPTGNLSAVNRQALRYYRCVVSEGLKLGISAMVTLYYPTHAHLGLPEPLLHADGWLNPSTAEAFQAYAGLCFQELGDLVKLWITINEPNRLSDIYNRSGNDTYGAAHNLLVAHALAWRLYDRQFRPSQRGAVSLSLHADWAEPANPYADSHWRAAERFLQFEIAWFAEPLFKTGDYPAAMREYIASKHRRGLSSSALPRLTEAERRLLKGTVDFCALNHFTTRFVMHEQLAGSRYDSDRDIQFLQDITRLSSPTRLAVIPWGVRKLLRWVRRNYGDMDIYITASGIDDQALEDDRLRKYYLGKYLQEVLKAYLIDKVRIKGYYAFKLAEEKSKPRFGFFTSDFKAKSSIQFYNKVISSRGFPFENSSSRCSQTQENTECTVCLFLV
mature human FGF21 polypeptide fused with the human Fc fragment at the N-terminus (Fc-FGF21), wild type (from UniProt Q9NSA1) 171P-A, sequence (Q9NSA1 29-209, change not shown): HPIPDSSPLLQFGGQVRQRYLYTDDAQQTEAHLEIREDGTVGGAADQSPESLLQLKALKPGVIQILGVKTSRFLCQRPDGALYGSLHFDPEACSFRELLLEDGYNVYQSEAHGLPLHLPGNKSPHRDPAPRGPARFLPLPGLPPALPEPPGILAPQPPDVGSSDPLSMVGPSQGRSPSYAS
mature human FGF21 polypeptide fused with the human Fc fragment at the N-terminus (Fc-FGF21), wild type (from UniProt Q9NSA1) 169G-R, sequence (Q9NSA1 29-209, change not shown): as above
mature human FGF21 polypeptide fused with the human Fc fragment at the N-terminus (Fc-FGF21), wild type (from UniProt Q9NSA1) 165L-A, sequence (Q9NSA1 29-209, change not shown): as above
mature human FGF21 polypeptide fused with the human Fc fragment at the N-terminus (Fc-FGF21), wild type (from UniProt Q9NSA1) 175P-A, sequence (Q9NSA1 29-209, change not shown): as above
mature human FGF21 polypeptide fused with the human Fc fragment at the N-terminus (Fc-FGF21), wild type (from UniProt Q9NSA1) 173A-R, sequence (Q9NSA1 29-209, change not shown): as above
mature human FGF21 polypeptide fused with the human Fc fragment at the N-terminus (Fc-FGF21), wild type (from UniProt Q9NSA1) 178P-A, sequence (Q9NSA1 29-209, change not shown): as above
mature human FGF21 polypeptide fused with the human Fc fragment at the N-terminus (Fc-FGF21), wild type (from UniProt Q9NSA1) 174P-A, sequence (Q9NSA1 29-209, change not shown): as above
mature human FGF21 polypeptide fused with the human Fc fragment at the N-terminus (Fc-FGF21), wild type (from UniProt Q9NSA1) 177P-R, sequence (Q9NSA1 29-209, change not shown): as above
mature human FGF21 polypeptide fused with the human Fc fragment at the N-terminus (Fc-FGF21), wild type (from UniProt Q9NSA1) 170L-R, sequence (Q9NSA1 29-209, change not shown): as above
mature human FGF21 polypeptide fused with the human Fc fragment at the N-terminus (Fc-FGF21), wild type (from UniProt Q9NSA1) 179G-A, sequence (Q9NSA1 29-209, change not shown): as above
mature human FGF21 polypeptide fused with the human Fc fragment at the N-terminus (Fc-FGF21), wild type (from UniProt Q9NSA1) 187D-A, sequence (Q9NSA1 29-209, change not shown): as above
mature human FGF21 polypeptide fused with the human Fc fragment at the N-terminus (Fc-FGF21), wild type (from UniProt Q9NSA1) 176E-R, sequence (Q9NSA1 29-209, change not shown): as above
mature human FGF21 polypeptide fused with the human Fc fragment at the N-terminus (Fc-FGF21), wild type (from UniProt Q9NSA1) 172P-R, sequence (Q9NSA1 29-209, change not shown): as above
mature human FGF21 polypeptide fused with the human Fc fragment at the N-terminus (Fc-FGF21), wild type (from UniProt Q9NSA1) 168P-R, sequence (Q9NSA1 29-209, change not shown): as above
mature human FGF21 polypeptide fused with the human Fc fragment at the N-terminus (Fc-FGF21), wild type (from UniProt Q9NSA1) 170L-A, sequence (Q9NSA1 29-209, change not shown): as above
mature human FGF21 polypeptide fused with the human Fc fragment at the N-terminus (Fc-FGF21), wild type (from UniProt Q9NSA1) 185P-A, sequence (Q9NSA1 29-209, change not shown): as above
mature human FGF21 polypeptide fused with the human Fc fragment at the N-terminus (Fc-FGF21), wild type (from UniProt Q9NSA1) 167L-A, sequence (Q9NSA1 29-209, change not shown): as above
mature human FGF21 polypeptide fused with the human Fc fragment at the N-terminus (Fc-FGF21), wild type (from UniProt Q9NSA1) 180I-R, sequence (Q9NSA1 29-209, change not shown): as above
mature human FGF21 polypeptide fused with the human Fc fragment at the N-terminus (Fc-FGF21), wild type (from UniProt Q9NSA1) 172P-A, sequence (Q9NSA1 29-209, change not shown): as above
mature human FGF21 polypeptide fused with the human Fc fragment at the N-terminus (Fc-FGF21), wild type (from UniProt Q9NSA1) 163R-A, sequence (Q9NSA1 29-209, change not shown): as above

| ratio to parent | Substance |
| --- | --- |
| 0.9 | mature human FGF21 polypeptide fused with the human Fc fragment at the N-terminus (Fc-FGF21), wild type (from UniProt Q9NSA1) 163R-A |
| 0.8 | mature human FGF21 polypeptide fused with the human Fc fragment at the N-terminus (Fc-FGF21), wild type (from UniProt Q9NSA1) 164F-A |
| 3 | mature human FGF21 polypeptide fused with the human Fc fragment at the N-terminus (Fc-FGF21), wild type (from UniProt Q9NSA1) 164F-R |
| 1 | mature human FGF21 polypeptide fused with the human Fc fragment at the N-terminus (Fc-FGF21), wild type (from UniProt Q9NSA1) 165L-A |
| 0.6 | mature human FGF21 polypeptide fused with the human Fc fragment at the N-terminus (Fc-FGF21), wild type (from UniProt Q9NSA1) 166P-A |
| 2.6 | mature human FGF21 polypeptide fused with the human Fc fragment at the N-terminus (Fc-FGF21), wild type (from UniProt Q9NSA1) 166P-R |
| 0.4 | mature human FGF21 polypeptide fused with the human Fc fragment at the N-terminus (Fc-FGF21), wild type (from UniProt Q9NSA1) 167L-A |
| 1 | mature human FGF21 polypeptide fused with the human Fc fragment at the N-terminus (Fc-FGF21), wild type (from UniProt Q9NSA1) 167L-R |
| 0.5 | mature human FGF21 polypeptide fused with the human Fc fragment at the N-terminus (Fc-FGF21), wild type (from UniProt Q9NSA1) 168P-A |
| 1.2 | mature human FGF21 polypeptide fused with the human Fc fragment at the N-terminus (Fc-FGF21), wild type (from UniProt Q9NSA1) 168P-R |
| 0.9 | mature human FGF21 polypeptide fused with the human Fc fragment at the N-terminus (Fc-FGF21), wild type (from UniProt Q9NSA1) 169G-A |
| 2.2 | mature human FGF21 polypeptide fused with the human Fc fragment at the N-terminus (Fc-FGF21), wild type (from UniProt Q9NSA1) 169G-R |
| 1 | mature human FGF21 polypeptide fused with the human Fc fragment at the N-terminus (Fc-FGF21), wild type (from UniProt Q9NSA1) 170L-A |
| 1 | mature human FGF21 polypeptide fused with the human Fc fragment at the N-terminus (Fc-FGF21), wild type (from UniProt Q9NSA1) 170L-R |
| 1.2 | mature human FGF21 polypeptide fused with the human Fc fragment at the N-terminus (Fc-FGF21), wild type (from UniProt Q9NSA1) 171P-A |
| 1.2 | mature human FGF21 polypeptide fused with the human Fc fragment at the N-terminus (Fc-FGF21), wild type (from UniProt Q9NSA1) 171P-R |
| 0.5 | mature human FGF21 polypeptide fused with the human Fc fragment at the N-terminus (Fc-FGF21), wild type (from UniProt Q9NSA1) 172P-A |
| 1.5 | mature human FGF21 polypeptide fused with the human Fc fragment at the N-terminus (Fc-FGF21), wild type (from UniProt Q9NSA1) 172P-R |
| 0.6 | mature human FGF21 polypeptide fused with the human Fc fragment at the N-terminus (Fc-FGF21), wild type (from UniProt Q9NSA1) 173A-R |
| 0.6 | mature human FGF21 polypeptide fused with the human Fc fragment at the N-terminus (Fc-FGF21), wild type (from UniProt Q9NSA1) 174P-A |
| 1.3 | mature human FGF21 polypeptide fused with the human Fc fragment at the N-terminus (Fc-FGF21), wild type (from UniProt Q9NSA1) 174P-R |
| 0.5 | mature human FGF21 polypeptide fused with the human Fc fragment at the N-terminus (Fc-FGF21), wild type (from UniProt Q9NSA1) 175P-A |
| 1.4 | mature human FGF21 polypeptide fused with the human Fc fragment at the N-terminus (Fc-FGF21), wild type (from UniProt Q9NSA1) 175P-R |

| ratio to parent | Substance |
| --- | --- |
| 0.5 | mature human FGF21 polypeptide fused with the human Fc fragment at the N-terminus (Fc-FGF21), wild type (from UniProt Q9NSA1) 176E-A |
| 1.6 | mature human FGF21 polypeptide fused with the human Fc fragment at the N-terminus (Fc-FGF21), wild type (from UniProt Q9NSA1) 176E-R |
| 1 | mature human FGF21 polypeptide fused with the human Fc fragment at the N-terminus (Fc-FGF21), wild type (from UniProt Q9NSA1) 177P-A |
| 1.2 | mature human FGF21 polypeptide fused with the human Fc fragment at the N-terminus (Fc-FGF21), wild type (from UniProt Q9NSA1) 177P-R |
| 0.7 | mature human FGF21 polypeptide fused with the human Fc fragment at the N-terminus (Fc-FGF21), wild type (from UniProt Q9NSA1) 178P-A |
| 1.2 | mature human FGF21 polypeptide fused with the human Fc fragment at the N-terminus (Fc-FGF21), wild type (from UniProt Q9NSA1) 178P-R |
| 1.3 | mature human FGF21 polypeptide fused with the human Fc fragment at the N-terminus (Fc-FGF21), wild type (from UniProt Q9NSA1) 179G-A |
| 1 | mature human FGF21 polypeptide fused with the human Fc fragment at the N-terminus (Fc-FGF21), wild type (from UniProt Q9NSA1) 179G-R |
| 0.6 | mature human FGF21 polypeptide fused with the human Fc fragment at the N-terminus (Fc-FGF21), wild type (from UniProt Q9NSA1) 180I-A |
| 2.3 | mature human FGF21 polypeptide fused with the human Fc fragment at the N-terminus (Fc-FGF21), wild type (from UniProt Q9NSA1) 180I-R |
| 0.5 | mature human FGF21 polypeptide fused with the human Fc fragment at the N-terminus (Fc-FGF21), wild type (from UniProt Q9NSA1) 181L-A |
| 1.2 | mature human FGF21 polypeptide fused with the human Fc fragment at the N-terminus (Fc-FGF21), wild type (from UniProt Q9NSA1) 181L-R |
| 1.4 | mature human FGF21 polypeptide fused with the human Fc fragment at the N-terminus (Fc-FGF21), wild type (from UniProt Q9NSA1) 182A-R |
| 0.8 | mature human FGF21 polypeptide fused with the human Fc fragment at the N-terminus (Fc-FGF21), wild type (from UniProt Q9NSA1) 183P-A |
| 1 | mature human FGF21 polypeptide fused with the human Fc fragment at the N-terminus (Fc-FGF21), wild type (from UniProt Q9NSA1) 183P-R |
| 1.2 | mature human FGF21 polypeptide fused with the human Fc fragment at the N-terminus (Fc-FGF21), wild type (from UniProt Q9NSA1) 184Q-A |
| 1.8 | mature human FGF21 polypeptide fused with the human Fc fragment at the N-terminus (Fc-FGF21), wild type (from UniProt Q9NSA1) 184Q-R |
| 1.3 | mature human FGF21 polypeptide fused with the human Fc fragment at the N-terminus (Fc-FGF21), wild type (from UniProt Q9NSA1) 185P-A |
| 1.6 | mature human FGF21 polypeptide fused with the human Fc fragment at the N-terminus (Fc-FGF21), wild type (from UniProt Q9NSA1) 185P-R |
| 12 | mature human FGF21 polypeptide fused with the human Fc fragment at the N-terminus (Fc-FGF21), wild type (from UniProt Q9NSA1) 186P-A |
| 14 | mature human FGF21 polypeptide fused with the human Fc fragment at the N-terminus (Fc-FGF21), wild type (from UniProt Q9NSA1) 187D-A |
| 6 | mature human FGF21 polypeptide fused with the human Fc fragment at the N-terminus (Fc-FGF21), wild type (from UniProt Q9NSA1) 187D-R |
